± gives the uncertainty stated by the source.
Experiment: self-splicing fitness, log relative to wild type (ln ratio); higher = more splicing; Tetrahymena group I intron in knt gene, E. coli kanamycin selection, DiMSum; sequences stand for … in CUCUCU…GGAGGGAAAAGUUAUCAGGCAUGCACCUGGUAGCUAGUCUUUAAACCAAUAGAUUGCAUCGGUUUAAAAGGCAAGACCGUCAAAUUGCGGGAAAGGGGUCAACAGCCGUUCAGUACCAAGUCUCAGGGGAAACUUUGAGAUGGCCUUGCAAAGGGUAUGGUAAUAAGCUGACGGACAUGGUCCUAACCACGCAGCCAAGUCCUAAGUCAACAGAUCUUCUGUUGAUAUGGAUGCAGUUCACAGACUAAAUGUCGGUCGGGGAAGAUGUAUUCUUCUCAUAAGAUAUAGUCGGACCUCUCCUUAAUGGGAGCUAGCGGAUGAAGUGAUGCAACACUGGAGCCGCUGGGAACUAAUUUGUAUGCGAAAGUAUAUUGAUUAGUUUUGGAGUACUCGUGGUCG
Method in brief: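 Pooled colonies went to amplicon sequencing on an Illumina HiSeq 2500 after six replicate transformations. The plates were LB agar with 100 μg/mL carbenicillin, 50 μM IPTG and 0.2% rhamnose, with or without 25 μg/mL kanamycin, incubated overnight at 37°C or 30°C. The E. coli BL21(DE3) library had all eight P1ex-region intron nucleotides randomised, the intron placed in the knt kanamycin-resistance gene on pET-22b(+). DiMSum fitness is the error-weighted combination of replicate fold changes, kanamycin against none, normalised to wild type.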

Sequence | self-splicing fitness (ln) (30 °C) | self-splicing fitness (ln) (37 °C)
AGGCAGCAAUAUUACGUUCC | -0.801 ± 0.12 | -0.27 ± 0.16
GAAAAGCAAUAUUACGCAAU | -2.28 ± 0.12 | -1.41 ± 0.17
AACUAGCAAUAUUACGAUGG | -2.49 ± 0.17 | -0.739 ± 0.14
CUCAAGCAAUAUUACGUGUU | -3.89 ± 0.23 | -2.76 ± 0.22
AAGCAGCAAUAUUACGUCGA | -1.03 ± 0.12 | -0.392 ± 0.11
CACUAGCAAUAUUACGAUAG | -0.974 ± 0.1 | -0.493 ± 0.11
CUUGAGCAAUAUUACGUCAA | -3.45 ± 0.21 | -2.19 ± 0.23
ACGAAGCAAUAUUACGGUAG | -2.36 ± 0.15 | -2.22 ± 0.22
UGCAAGCAAUAUUACGAUCG | -0.2 ± 0.07 | 0.647 ± 0.093
CUUUAGCAAUAUUACGGCCA | – | -0.666 ± 0.5
CCAAAGCAAUAUUACGCAAC | -1.96 ± 0.1 | -2.53 ± 0.23
CCGGAGCAAUAUUACGGCCU | -4.41 ± 0.28 | -3.79 ± 0.23
GGGAAGCAAUAUUACGGUAG | -2.65 ± 0.2 | -2.32 ± 0.24
CACAAGCAAUAUUACGCUUU | -4.46 ± 0.24 | -2.81 ± 0.17
GUAUAGCAAUAUUACGGACA | -2.7 ± 0.27 | -1.1 ± 0.15
CGUCAGCAAUAUUACGAUUC | -0.695 ± 0.096 | 0.147 ± 0.087
UCGGAGCAAUAUUACGGUCA | -0.984 ± 0.18 | –
UACUAGCAAUAUUACGACAG | -1.04 ± 0.1 | -0.806 ± 0.13
CCUUAGCAAUAUUACGAGGG | -3.54 ± 0.24 | -1.39 ± 0.21
GCAAAGCAAUAUUACGGAAG | -1.96 ± 0.14 | -0.343 ± 0.16
UAAGAGCAAUAUUACGUUAG | -3.43 ± 0.24 | -3.1 ± 0.27
CACAAGCAAUAUUACGGAGG | -2.14 ± 0.089 | -0.826 ± 0.1

Sequence | self-splicing fitness (ln) (30 °C) | self-splicing fitness (ln) (37 °C)
UGAAAGCAAUAUUACGUUAA | -1.45 ± 0.089 | -0.938 ± 0.09
CGAAAGCAAUAUUACGCCGA | -1.99 ± 0.24 | -0.323 ± 0.15
CUCUAGCAAUAUUACGGAGC | -3.72 ± 0.27 | -3.48 ± 0.26
GAGCAGCAAUAUUACGGGUU | -2.44 ± 0.14 | -2.02 ± 0.16
GAAUAGCAAUAUUACGACCU | -0.378 ± 0.11 | 0.363 ± 0.13
GUCCAGCAAUAUUACGGACG | -2.99 ± 0.26 | -0.833 ± 0.18
AUUCAGCAAUAUUACGCCAG | -3.08 ± 0.22 | -0.928 ± 0.22
ACUUAGCAAUAUUACGCGCA | -0.717 ± 0.093 | -0.258 ± 0.13
CGGCAGCAAUAUUACGCAUU | -2.66 ± 0.15 | -2.33 ± 0.14
ACGCAGCAAUAUUACGUCUG | -2.44 ± 0.14 | -2.5 ± 0.28
GUGGAGCAAUAUUACGUAAA | -1.5 ± 0.21 | -2.18 ± 0.47
UGCUAGCAAUAUUACGGGUU | -2.39 ± 0.14 | -1.33 ± 0.14
UGUUAGCAAUAUUACGGUAU | -2.59 ± 0.4 | -1.95 ± 0.28
UACGAGCAAUAUUACGAAAC | -2.05 ± 0.48 | –
AGUUAGCAAUAUUACGCGUU | -1.32 ± 0.12 | -0.816 ± 0.15
AUCGAGCAAUAUUACGCUAA | -3.48 ± 0.21 | -2.88 ± 0.18
CUGGAGCAAUAUUACGCGGU | -1.94 ± 0.1 | -2.46 ± 0.24
UGGGAGCAAUAUUACGGUUC | – | -0.762 ± 0.44
UCGAAGCAAUAUUACGGACA | -0.385 ± 0.15 | -0.235 ± 0.23
GUCUAGCAAUAUUACGAGAU | -3.31 ± 0.26 | -2.32 ± 0.22
UCGAAGCAAUAUUACGUAUU | -2.99 ± 0.18 | -3.17 ± 0.31
